Measurements as given in patent US20220265806A1.
pEC50: −log10 of the molar value.

Molecular target: E1′ (CHIKV E1 ectodomain construct) (Chikungunya virus)

## chCHK-166^pMAZ (antibody)
  pEC50: 8.66
